Reference: article doi:10.1101/2025.08.17.670156 (bioRxiv, 2025)
Where a chain is given by its changes, count along the chain named. In names and notes the source's numbering stands.

B1: double plant homeodomain fingers 3a (DPF3 isoform a), wild type (natural protein, human, UniProt Q92784-2 1-357, looked up)
chain: MATVIHNPLKALGDQFYKEAIEHCRSYNSRLCAERSVRLPFLDSQTGVAQNNCYIWMEKRHRGPGLAPGQLYTYPARCWRKKRRLHPPEDPKLRLLEIKPEVELPLKKDGFTSESTTLEALLRGEGVEKKVDAREEESIQEIQRVLENDENVEEGNEEEDLEEDIPKRKNRTRGRARGSAGGRRRHDAASQEDHDKPYVCDICGKRYKNRPGLSYHYAHTHLASEEGDEAQDQETRSPPNHRNENHRPQKGPDGTVIPNNYCDFCLGGSNMNKKSGRPEELVSCADCGRSAHLGGEGRKEKEAAAAARTTEDLFGSTSESDTSTFHGFDEDDLEEPRSCRGRRSGRGSPTADKKGSC
B2: DPF3a phosphomimetic S348E (natural protein, human, UniProt Q92784-2 1-357, looked up)
chain: B1 chain with S348E
B3: DPF3a phosphomimetic S138E (natural protein, human, UniProt Q92784-2 1-357, looked up)
chain: B1 chain with S138E

Molecular target: the molecule itself
Assay: deep-blue autofluorescence of amyloid fibrils

Binding result, binds:
B1, B2, B3
